According to patent publication US20230242658A1 (published 2023):
Numbering of substitutions follows the chain as printed. Blank lines part the entries; values can stand above or below the binder they belong to.

Key:
[1] = molecular target: T1, human 4-1BB on CHO-K1 cells (human, UniProt Q07011 24-255); assay: FACS blocking of 4-1BBL binding
[2] = molecular target: T2, cynomolgus monkey 4-1BB on CHO-K1 cells (cynomolgus monkey); assay: FACS; FIG. 12I
T2 chain: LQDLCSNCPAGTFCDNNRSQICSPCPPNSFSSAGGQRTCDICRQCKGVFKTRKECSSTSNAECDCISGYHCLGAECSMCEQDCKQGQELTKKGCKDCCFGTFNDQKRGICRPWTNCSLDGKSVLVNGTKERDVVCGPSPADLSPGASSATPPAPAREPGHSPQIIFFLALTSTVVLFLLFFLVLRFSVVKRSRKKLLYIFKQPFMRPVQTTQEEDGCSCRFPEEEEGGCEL

[3] = molecular target: T1, human 4-1BB on CHO-K1 cells; assay: FACS blocking of 4-1BBL; FIG. 14H
[4] = molecular target: T1, human 4-1BB on CHO-K1 cells; assay: FACS; FIG. 11J
[5] = molecular target: T1, human 4-1BB on CHO-K1 cells; assay: FACS; FIG. 11K
Target sequence in this assay (Q07011 24-255): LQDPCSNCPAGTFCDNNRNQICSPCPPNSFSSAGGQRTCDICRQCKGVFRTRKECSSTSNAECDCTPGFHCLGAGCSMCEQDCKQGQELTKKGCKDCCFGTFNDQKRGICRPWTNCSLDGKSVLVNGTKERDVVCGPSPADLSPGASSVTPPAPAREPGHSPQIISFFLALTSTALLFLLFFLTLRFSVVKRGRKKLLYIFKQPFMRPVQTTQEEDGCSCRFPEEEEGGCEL

[6] = molecular target: T1, human 4-1BB on CHO-K1 cells; assay: FACS blocking of 4-1BBL; FIG. 14D
[7] = molecular target: T1, human 4-1BB on CHO-K1 cells; assay: FACS blocking of 4-1BBL; FIG. 14B
[8] = molecular target: T1, human 4-1BB on CHO-K1 cells; assay: FACS; FIG. 11E
[9] = molecular target: T1, human 4-1BB on CHO-K1 cells; assay: FACS; FIG. 11L
Target sequence in this assay (Q07011 24-255): as above

[10] = molecular target: T1, human 4-1BB on CHO-K1 cells; assay: FACS; FIG. 11F
[11] = molecular target: T1, human 4-1BB on CHO-K1 cells; assay: FACS
Target sequence in this assay (Q07011 24-255): as above

[12] = molecular target: T1, human 4-1BB on CHO-K1 cells; assay: FACS; FIG. 11D
[13] = molecular target: T1, human 4-1BB on CHO-K1 cells; assay: FACS; FIG. 11G
[14] = molecular target: T1, human 4-1BB on CHO-K1 cells; assay: FACS; FIG. 11C
[15] = molecular target: T1, human 4-1BB on CHO-K1 cells; assay: FACS blocking of 4-1BBL; FIG. 14A
[16] = molecular target: T1, human 4-1BB on CHO-K1 cells; assay: FACS; FIG. 11B
[17] = molecular target: T1, human 4-1BB on CHO-K1 cells; assay: FACS blocking of 4-1BBL; FIG. 14C
[18] = molecular target: T1, human 4-1BB on CHO-K1 cells; assay: FACS; FIG. 11M
Target sequence in this assay (Q07011 24-255): as above

[19] = molecular target: T1, human 4-1BB on CHO-K1 cells; assay: FACS; FIG. 11I
[20] = molecular target: T2, cynomolgus monkey 4-1BB on CHO-K1 cells; assay: FACS; FIG. 12H
[21] = molecular target: T1, human 4-1BB on CHO-K1 cells; assay: FACS blocking of 4-1BBL; FIG. 14G
[22] = molecular target: T2, cynomolgus monkey 4-1BB on CHO-K1 cells; assay: FACS; FIG. 12G
[23] = molecular target: T1, human 4-1BB on CHO-K1 cells; assay: FACS; FIG. 11H
[24] = molecular target: T1, human 4-1BB on CHO-K1 cells; assay: FACS; remark: listed apart in the source
Target sequence in this assay (Q07011 24-255): as above

[25] = molecular target: T2, cynomolgus monkey 4-1BB on CHO-K1 cells; assay: FACS; FIG. 12F
[26] = molecular target: T1, human 4-1BB on CHO-K1 cells; assay: FACS blocking of 4-1BBL; FIG. 14F
[27] = molecular target: T3, human PD-L1 on CHO-K1 cells (human, UniProt Q9NZQ7 19-290); assay: FACS; MDA-MB-231 cells; FIG. 24E
[28] = molecular target: T3, human PD-L1 on CHO-K1 cells; assay: FACS; MDA-MB-231 cells; FIG. 24C
[29] = molecular target: T3, human PD-L1 on CHO-K1 cells; assay: FACS; MDA-MB-231 cells; FIG. 24D

T3 sequence (Q9NZQ7 19-290): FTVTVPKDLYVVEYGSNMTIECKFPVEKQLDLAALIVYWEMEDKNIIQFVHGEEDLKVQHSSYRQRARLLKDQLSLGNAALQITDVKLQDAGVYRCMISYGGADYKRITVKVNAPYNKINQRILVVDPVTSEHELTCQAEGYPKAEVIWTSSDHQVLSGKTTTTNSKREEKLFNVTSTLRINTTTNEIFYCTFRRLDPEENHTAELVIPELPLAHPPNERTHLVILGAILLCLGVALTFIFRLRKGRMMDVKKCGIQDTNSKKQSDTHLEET

B5: PR007287 (antibody, V domains shown)
VH: EVQLEESGGGLVKPGGSLRLSCAASGFTFSDYYMSWFRQAPGKGLEWVSYISSSGSITDYADAVKGRFNISRDNAKNSLYLQMNSLRAEDTAVYYCAREREAVAGTLDFDNWGQGTLVTVSS
EC50 [19]: 1.55 nM | EC50 [20]: 1.17 nM | IC50 [21]: 2.55 nM

B6: PR007289 (antibody, V domains shown)
VH: B5 VH with E5V, I57T, T58Q, A63S, N69T, A102P, L117P
EC50 [2]: 4.11 nM | IC50 [3]: 11 nM | EC50 [4]: 2.49 nM

B7: PR007290 (antibody, V domains shown)
VH: EVQLVESGGGVVQPGRSLRLSCAASGFTFSDYYMSWFRQAPGKGLEWVSYISSSGTTIDYADSVKGRFTISRDNAKNSLYLQMNSLRAEDTAVYYCAREREEVAGTLDFDYWGQGTPVTVSS
EC50 [2]: 2.5 nM | IC50 [3]: 5.11 nM | EC50 [4]: 2.02 nM

B9: PR004469 (antibody, V domains shown)
VH: EVQLLESGGGLVQPGGSLRLSCAASGFTFSNYAMSWFRQPPETGLKWVSSIDASGGDTYYADSVKGRFTISRDNSKNTLYLQMNSLRAEDTAVYYCAKEGSHGTDDSHYDVDVWGQGTTVTVSS
EC50 [22]: 0.568 nM | EC50 [23]: 1.29 nM

B10: PR001838 (antibody, V domains shown)
VH: B9 VH with A53G
EC50 [24]: 0.248 nM | EC50 [22]: 0.329 nM | EC50 [23]: 0.851 nM | EC50 [25]: 1.09 nM | IC50 [26]: 1.61 nM

B11: PR000265 (antibody, V domains shown)
VH: EVQLVESGGGLVQPGGSLRLSCAASGFTFSSYWMSWVRQAPGKGLEWVANIKQEGSEKYYVDSVKGRFTISRDNAKNSLYLQMNSLRAEDTAVYYCARDRAVAGAFDIWGQGTMVTVSS
VL: DIQMTQSPSTLSASVGDRVTVTCRASQSIYIWLAWYQQKPGKAPNLLIYKASSLETGVPSRFSGSGSGTEFTLTISSLQPDDFATYYCQQYYGSSRTFGQGTKVEIKR
EC50 [27]: 0.233 nM | EC50 [28]: 0.11 nM | EC50 [29]: 0.233 nM

Results, then the binder that gave them:

EC50 [1]: 2.05 nM
B1: PR000448 (antibody, V domains shown)
VH: QVQLQQWGAGLLKPSETLSLTCAVYGGSFSGYYWSWIRQPPGKGLEWIGEIQHSGSTDSNPSLKGRVTFSVDTSKNQFSLKLNSVTAADTAVYYCARLTGPFDYWGQGTLVTVSS
VL: EIVMTQSPATLSVSPGERATLSCRASQSISSILAWYQQKPGQAPRLLIYGASTRATGIPARFSGSGSGTEFTLTISSLQSEDFAVYYCQQYYNWPLTFGGGTKVEIKR

EC50 [2]: 1.95 nM | IC50 [3]: 3.29 nM | EC50 [4]: 2.47 nM
B2: PR007291 (antibody, V domains shown)
VH: EVQLVESGGGLVKPGGSLRLSCVTSGFTFSDYYMNWIRQAPGKGQEWVSYISGNGSTIYYADSVKGRFTISRDNAKNSLYLQMNSLRAEDTAVYYCARVRPGGSGNYWDWFDPWGQGTPVTVSS

EC50 [5]: 0.583 nM | IC50 [6]: 2.37 nM | IC50 [7]: 1.5 nM | EC50 [8]: 0.222 nM | EC50 [9]: 0.565 nM | EC50 [10]: 0.222 nM | EC50 [11]: 0.222 nM | EC50 [12]: 0.222 nM | EC50 [13]: 0.222 nM | EC50 [14]: 0.222 nM | IC50 [15]: ~2.53 nM | EC50 [16]: 0.222 nM | IC50 [17]: 2.41 nM | EC50 [18]: 0.55 nM
B3: Urelumab (antibody, V domains shown)
VH: QVQLQQWGAGLLKPSETLSLTCAVYGGSFSGYYWSWIRQSPEKGLEWIGEINHGGYVTYNPSLESRVTISVDTSKNQFSLKLSSVTAADTAVYYCARDYGPGNYDWYFDLWGRGTLVTVSS
VL: EIVLTQSPATLSLSPGERATLSCRASQSVSSYLAWYQQKPGQAPRLLIYDASNRATGIPARFSGSGSGTDFTLTISSLEPEDFAVYYCQQRSNWPPALTFGGGTKVEIKR

EC50 [19]: 1.21 nM | EC50 [20]: 0.903 nM | IC50 [21]: 1.63 nM
B4: PR007288 (antibody, V domains shown)
VH: B5 VH with E5V, S53G, T58I, A63S, N69T, A97S, N111Y

EC50 [19]: 4.37 nM | EC50 [20]: 4.61 nM | IC50 [21]: 7.54 nM
B8: PR007286 (antibody, V domains shown)
VH: EVQLVESGGGLVKPGGSLRLSCAASGFTFSDYYMSWIRQAPGKGLEWVSYISSSGSTIYYADSVKGRFTISRDNAKNSLYLQMNSLRAEDTAVYYCARVKPVAGTWDWFDPWGQGTPVTVSS
